Measurements as given in doi:10.1101/2023.04.06.534471.

Target: Dendritic cell-specific intercellular adhesion molecule 3-grabbing nonintegrin (DC-SIGN), on the Biacore chip (UniProt Q9NNX6)
Assay: SPR

Sequence of UniProt Q9NNX6 (Q9NNX6 whole entry): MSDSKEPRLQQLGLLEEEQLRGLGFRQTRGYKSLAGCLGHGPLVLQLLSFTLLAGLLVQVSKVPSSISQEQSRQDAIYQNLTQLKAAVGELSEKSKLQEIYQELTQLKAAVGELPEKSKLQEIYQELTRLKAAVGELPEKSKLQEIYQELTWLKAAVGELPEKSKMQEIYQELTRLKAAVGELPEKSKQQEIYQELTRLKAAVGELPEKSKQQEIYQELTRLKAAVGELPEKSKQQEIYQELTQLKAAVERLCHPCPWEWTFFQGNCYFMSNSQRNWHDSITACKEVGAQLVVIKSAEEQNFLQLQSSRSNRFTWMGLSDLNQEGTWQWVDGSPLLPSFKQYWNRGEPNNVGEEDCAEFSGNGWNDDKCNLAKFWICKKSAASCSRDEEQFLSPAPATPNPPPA

For “Surface layer protein B (SlpB) from Levilactobacillus brevis JCM 1059 (natural protein)”, the Kd was 30.3 nM.
